From the supplement of paper PMC7125110
± gives the standard error. Variants at the floor of the assay were thinned out.

B1: glmS ribozyme (parent)
chain: AUAAAAGCGCCAGAACUACAGAAAUGUAGUUGACGAGGAGGAGGUUUAUCGAAUUUUCGGCGGAUGCCUCCAAA

Variants of: B1
Experiment: self-cleavage kobs at 2500 uM GlcN6P; higher = faster cleavage; RNA array
Conditions: with glucosamine-6-phosphate
Outline: (§1)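 Glucosamine-6-phosphate, from 40 μM to 10 mM in HEPES/KCl/Mg(OAc)2 buffer, was flowed over sequenced MiSeq chips carrying barcoded ribozyme variants transcribed in situ by E. coli RNA polymerase. A hybridised Cy3 probe tracked the variants at 37 °C as tiles were imaged over ~14 h. kobs, kcat and KM were obtained by fitting normalised per-tile medians to exponential decays and then applying weighted Michaelis–Menten fits across concentrations.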

Row | Variant | self-cleavage kobs at 2500 uM GlcN6P [s⁻¹]
1 | C34A G44C G59U G63A | < 1e-05
2 | U45G C50U U55A | < 1e-05
3 | G37U U56C G60C C61G | < 1e-05
4 | G41U U45G U49A | < 1e-05
5 | G38C U49G U55A U65G | < 1e-05
6 | C34A A39U C50G C67G | 0.000353 ± 6.7e-05
7 | G40C G43A A48U A64C U69A | < 1e-05
8 | G51U C68U C71U | < 1e-05
9 | C34U G35A G38U G43A | < 1e-05
10 | C58U A64U C67G | < 1e-05
11 | A39G G51A C68U | < 1e-05
12 | A39G A42U C68U | 0.000999 ± 0.00036
13 | A52U C61G G63C G66A | < 1e-05
14 | A64G C68G C71G | 0.000122 ± 3.9e-05
15 | U45C G66C C71A | 6.04e-05 ± 2.8e-05
16 | A39G G40U A52G | 6.69e-05 ± 2.4e-05
17 | G35C G38U G59C U69G | < 1e-05
18 | U46A U56A C67G | 0.000143 ± 6.8e-05
19 | C34U C50G C68A U69A | 0.000141 ± 4.9e-05
20 | A48C G63A C71A | < 1e-05
21 | C34U G37C A42U | < 1e-05
22 | C50A U55G C67G | 9.38e-05 ± 3.7e-05
23 | U45A A48G C67G | 8.99e-05 ± 3.1e-05

Row | Variant | self-cleavage kobs at 2500 uM GlcN6P [s⁻¹]
24 | A48G U56A U69G | 7.7e-05 ± 2.2e-05
25 | A53U U54G U55A C71U | 0.00523 ± 0.0019
26 | G40C G43U U56A | < 1e-05
27 | G40U U47G G51C U65A | < 1e-05
28 | G40A A53G C58A | 0.000125 ± 3.1e-05
29 | U56G G60U G63C | < 1e-05
30 | G35C C58G G60U U65C | < 1e-05
31 | U49C G63U G66C | < 1e-05
32 | U69C C70U C71G | 3.82e-05 ± 1.3e-05
33 | G40A G62U C70G | < 1e-05
34 | G43U U56C C67G | < 1e-05
35 | G35A A36U G44A A52G C61G C67A | < 1e-05
36 | G40U C50A U56A C67G C71U | < 1e-05
37 | G35A A52U U54A C61U C67G | < 1e-05
38 | A39U A48U C67G | 0.00017 ± 6.1e-05
39 | C34A A48U C50U | < 1e-05
40 | G37C G44C C67U | < 1e-05
41 | G44C A48G | < 1e-05
42 | A39G A48C C71G | 4.19e-05 ± 1.9e-05
43 | U46A A48U | 6.88e-05 ± 2.5e-05
44 | G51C G63A C68A | < 1e-05
45 | G37C U55G G63A C71G | < 1e-05
46 | G37A U49C A53U | < 1e-05

Row | Variant | self-cleavage kobs at 2500 uM GlcN6P [s⁻¹]
47 | G44U C67U C71A | 3.95e-05 ± 1.3e-05
48 | C34U U47C C61U | < 1e-05
49 | U47G C58A C68A | 0.000116 ± 2.9e-05
50 | G37U U45G U65G | < 1e-05
51 | U49G U54G C68G | 6.25e-05 ± 2.4e-05
52 | G37C G62U C71G | < 1e-05
53 | A52U A53G A64G | 5.47e-05 ± 1.7e-05
54 | A36C G43C G51C C61A C71U | < 1e-05
55 | G40U A42U G43A C71A | < 1e-05
56 | A48U G60C C61A | < 1e-05
57 | U45G U47A | 0.00816 ± 0.0022
58 | U49C U55A G62C | < 1e-05
59 | G44U G62C G66A C67G | < 1e-05
60 | G40U U57A C61G | < 1e-05
61 | G35U U47A U55C | < 1e-05
62 | G35U C50G G66A | 7.38e-05 ± 3.6e-05
63 | U45G U46G A52G | 5.59e-05 ± 2.7e-05
64 | A39U A52C C67G U69G | < 1e-05
65 | G43C C67A U69G | 0.000151 ± 6e-05
66 | C34U C68U | < 1e-05
67 | U45G A48C | 5.95e-05 ± 2.2e-05
68 | C34U A36C A39U | < 1e-05
69 | A39G A52U C58A | < 1e-05

Row | Variant | self-cleavage kobs at 2500 uM GlcN6P [s⁻¹]
70 | G59C C61U C67A | 4.78e-05 ± 1.7e-05
71 | U45C A48C U65G C70G | < 1e-05
72 | A36U U45G C61G | < 1e-05
73 | G40C G60A G66A | < 1e-05
74 | C34A A48C A64U | < 1e-05
75 | G37U G40U U55C | < 1e-05
76 | C34U G35U G62C | < 1e-05
77 | G38C A39G G59A | < 1e-05
78 | G37A A39C G59C | < 1e-05
79 | A42U G59U C61G A64U C68A C70G | < 1e-05
80 | A36G A48G U69C | < 1e-05
81 | A52G U57C C67U | 0.000161 ± 7.8e-05
82 | C34A G43A U54G | < 1e-05
83 | C34A G43A C50G U54C | < 1e-05
84 | U46G U65A C67G | 0.000131 ± 2.5e-05
85 | G41A U47C G51C | < 1e-05
86 | G43C U46G A52G U54G G60A | < 1e-05
87 | C50G C58A C68G | 9.4e-05 ± 1.9e-05
88 | G35A A42U G44A | < 1e-05
89 | A36U G44A A48C U57C | < 1e-05
90 | G37A G44U G51U G66A | < 1e-05
91 | A36G G43U C70G | < 1e-05
92 | G35A G37U G51C | < 1e-05

Row | Variant | self-cleavage kobs at 2500 uM GlcN6P [s⁻¹]
93 | A42C C58A G60U | < 1e-05
94 | A39U U46G U56G | 0.000873 ± 0.00027
95 | A39G G40U U56A | 0.000452 ± 0.00011
96 | C34U A52U A53G A64U C70U | < 1e-05
97 | G43U G60A G66A C68G C70G | < 1e-05
98 | G37C G44A G51U G59C | < 1e-05
99 | A42U G43U C50G | 7.64e-05 ± 3.6e-05
100 | G40U G43U U54A | < 1e-05
101 | G37A U56C | 0.000299 ± 7.3e-05
102 | A36G G40C G60C | < 1e-05
103 | A39C G60C C67G | < 1e-05
104 | A48C C67G | 2.91e-05 ± 1e-05
105 | U65A C67G C71U | 3.53e-05 ± 1.5e-05
106 | U54G U57C | 0.000126 ± 2.3e-05
107 | U45C U47G | 0.000218 ± 9.6e-05
108 | G43C G51C U65A | < 1e-05
109 | G35C A42U U56C C68G | < 1e-05
110 | G38A A39C C50G C68A | 5.88e-05 ± 2.8e-05
111 | U46C C50U C61U | < 1e-05
112 | A36G G43A A48U A52G | < 1e-05
113 | U45A A52U C71U | 0.000244 ± 9.4e-05
114 | G35C G40C C70U | < 1e-05
115 | A36U A42G U49G U56C G66U C71U | < 1e-05

Row | Variant | self-cleavage kobs at 2500 uM GlcN6P [s⁻¹]
116 | G38C U46C U49A | < 1e-05
117 | G35C G38U G43U | < 1e-05
118 | G38A G41A C50G C61U | < 1e-05
119 | U46C U57A C71U | 4.35e-05 ± 1.6e-05
120 | G37U G51C A52G C61U C67U | < 1e-05
121 | C34A G41A C50G | < 1e-05
122 | G35C A36U G41C G51U U65G | < 1e-05
123 | G38A C50G U69G | 6.3e-05 ± 1.7e-05
124 | A36U A42G G60U C70A | < 1e-05
125 | A39C U56C U65G | 8.8e-05 ± 1.3e-05
126 | A42G A48U A52G C70A | < 1e-05
127 | G38A C58U C71U | < 1e-05
128 | G35C C50A C67G | < 1e-05
129 | A48G U55A C70A | 8.47e-05 ± 2.9e-05
130 | G40U U46C A64G | 9.83e-05 ± 2.4e-05
131 | G43U G44U G60A A64G C67A C71G | < 1e-05
132 | G44A A53U U54C | 0.000119 ± 4.8e-05
133 | A52U G60A G66U | < 1e-05
134 | A52C C58A C70U | < 1e-05
135 | G43A G66C C71A | < 1e-05
136 | U49C C68U | < 1e-05
137 | A36G C61G C67G U69G C71A | < 1e-05
138 | G40U U46G A48C | < 1e-05

Row | Variant | self-cleavage kobs at 2500 uM GlcN6P [s⁻¹]
139 | G40U A64G C71A | 0.00288 ± 0.0008
140 | G38C C58G G60U | < 1e-05
141 | G35C A42G U49C | < 1e-05
142 | G59A U69C C70U | < 1e-05
143 | G35C A52C C58U | < 1e-05
144 | A39C A53U C67A | 6.25e-05 ± 1.6e-05
145 | A39G G44A | 0.00105 ± 0.00035
146 | G35U C61U C70U | < 1e-05
147 | G35A U46A A64G | < 1e-05
148 | C34G A42C G63C U65G | < 1e-05
149 | A36G U65C C68G | < 1e-05
150 | C34U G38U A42U G63U | < 1e-05
151 | G38A U54C G63U | < 1e-05
152 | U46G G51U G59A | < 1e-05
153 | G37C C50G U54G G63U A64U | 6.2e-05 ± 3e-05
154 | G37A U45A A52U G60A | < 1e-05
155 | C50U G51C A53U | < 1e-05
156 | C58G C67A C70U C71U | 7.14e-05 ± 2.7e-05
157 | G59U U65A C68U | < 1e-05

Variants of: B1
Experiment: self-cleavage kobs at 10000 uM GlcN6P; higher = faster cleavage; RNA array
Conditions: with glucosamine-6-phosphate
Outline: as §1

Row | Variant | self-cleavage kobs at 10000 uM GlcN6P [s⁻¹]
158 | A5U A33C | 0.000263 ± 6.3e-05
159 | U46A U56A C67G | 0.000316 ± 7.6e-05
160 | G40U U47G G51C U65A | < 1e-05
161 | A39U A48U C67G | 0.000104 ± 1.6e-05
162 | G37C U55G G63A C71G | < 1e-05
163 | G44U C67U C71A | 4.71e-05 ± 1.2e-05
164 | U45G A48C | 0.000117 ± 2.2e-05
165 | A52G U57C C67U | 0.000116 ± 2.5e-05
166 | A39G G40U U56A | 0.00056 ± 0.00013
167 | G40U G43U U54A | < 1e-05
168 | G37A U56C | 0.000401 ± 5.4e-05
169 | A48C C67G | 2e-05 ± 7.5e-06
170 | A36U A42G U49G U56C G66U C71U | < 1e-05
171 | G35C A36U G41C G51U U65G | < 1e-05
172 | G44A A53U U54C | 0.000211 ± 6.8e-05
173 | G35C A52C C58U | < 1e-05
174 | A39G G44A | 0.000926 ± 0.00033
